Data on one molecule can be found in patent publication US20220289837A1, “Cystic Fibrosis Transmembrane Conductance Regulator Stabilizing Agents” (VIB VZW, priority 2019, published 2022).

In general, Kd refers to the free concentration of one partner at which half of the binding sites on the other are occupied at equilibrium, for simple one-to-one binding.

For series [1], the target named is T1, stab-CFTR: 2PT/ΔRI/R1048A_1172X (Homo sapiens, UniProt P13569, A534P/DEL405-436/I539T/R1048A/S492P).
T1 construct: made in house; host or cells: BHK-21 cells (ATCC CCL-10), pNUT vector
In words: NanoDSF thermostability of stab-CFTR. The format is binding. Conditions: versus stab-CFTR alone. As to the method: Purified stabilized human CFTR (stab-CFTR: 2PT/ΔRI/R1048A_1172X) was concentrated to 0.5 mg/ml and mixed with 0.1 mg/ml nanobody (^˜[…]) and capillaries were loaded with a volume of 10 The capillaries were placed into trays of Prometheus NT.48 (Nanotemper) and subjected to the fluorescence analysis. The emission of fluorescent radiation with the wavelengths of 330 nm and 350 nm was measured with the temperature changes from 25 to 85° C., with the rate of 1° C. min-1. The first derivative of 350 nm fluorescence was used to determine the melting temperature of the proteins.
On the technique in general: DSF heats the sample and reads unfolding from a dye or from intrinsic fluorescence.

Series [2] concerns the target T2, wt-CFTR (Homo sapiens, UniProt P13569). As to the kind of experiment: Flow cytometry on permeabilized BHK-21 cells overexpressing wt-CFTR. The class given is cell-based. Further details: expressed in transfected cells. Conditions: compared to negative control nanobody. How it is done: (§1) Parental BHK-21 cells (ATCC; CCL-10) and cells stably overexpressing human wt-CFTR^[43,44,47] or 2PT-F508del-CFTR, as described above, were permeabilized with 0.01% n-Dodecyl-β-D-Maltopyranoside β-DDM—Inalco) at least for 2 h on ice. In the meantime, cells were incubated with 50 μg/ml nanobodies and DRAQ7 (0.3 μM—Biostatus) to monitor the permeabilization state. Nanobody binding was detected by using His-tag specific antibody (Invitrogen, catalogue number MA1-135, 1 μg/ml) or Myc-tag specific antibody (Invitrogen, catalogue number 13-2500, 2 μg/ml) and then anti-mouse-Alexa Fluor 488 (Invitrogen, catalogue number A11001, 1.3 μg/ml) at least for 30 min on ice. Cells were washed one time between each step by centrifugation (200×g for 5 min at 4° C.). All incubations (100 μl) and washes (1.5 ml) were performed in PBS with 6% fetal bovine serum (FBS) and 0.01%13-DDM on ice. Cells fluorescence was measured with Gallios Flow Cytometer (Beckman Coulter). Data were analyzed with Kaluza software.
For orientation: Flow cytometry measures light scatter and fluorescence of single cells or particles in a stream.

For series [3], the target named is T3, F508del-2PT-NBD1 (Homo sapiens, UniProt P13569, A534P/DEL508-508/I539T/S492P/V470M).
T3 construct: His6-SUMO (N, cleaved yes); made in house; host or cells: Escherichia coli BL21(DE3) pLysS
In words: Thermal shift assay (DSF) of F508del-2PT-NBD1. The class given is binding. As to the method:
(§2) Solutions of either 2PT-NBD1 or F508del-2PT-NBD1 (10 μM final concentration), nanobodies (30 μM final concentration) and 2.5× or 5× concentrated SYPRO Orange Protein Stain (Molecular Probes) diluted in 20 mM HEPES pH 7.5, 150 mM NaCl, 3 mM MgCl2, 2 mM ATP and 10% (w/v) glycerol, 10% (w/v) ethylene glycol, were added to the wells of a 96-well PCR plates type BR white (VWR) in a final volume of 25 μl. Plates were sealed with EasySeal sheets (Molecular dimensions) and spun 2 min at 900× g. SYPRO orange fluorescence was monitored in CFX96 Touch Real-Time PCR Detection System (Bio-Rad) using FRET scan mode from 10 to 80° C. in increments of either 1° C. or 0.2° C.

For series [4], the target named is T4, 2PT-NBD1 (Homo sapiens, UniProt P13569, A534P/I539T/S492P/V470M).
T4 construct: 2PT-NBD1 mutants (residues 387-646 containing the mutations S492P, A534P, I539T); His6-SUMO (N, cleaved yes); made in house; host or cells: Escherichia coli BL21(DE3) pLysS
As to the kind of experiment: Thermal shift assay (DSF) of 2PT-NBD1. The class given is binding. Conditions: versus isolated 2PT-NBD1. How it is done: as §2

Series [5] has as its target T4, 2PT-NBD1. In words: Isothermal titration calorimetry (ITC) of nanobodies into 2PT-NBD1. Conditions: 20° C., 2PT-NBD1, mean±SD (n=3). The format is binding. As to the method: Interactions between nanobodies and 2PT-NBD1 was carried out on NanoITC system (TA Instruments) in 0.165 ml cells at 20° C., 300 rpm syringe stirring. Proteins were extensively dialyzed in 20 mM Hepes buffer pH 7.5, 150 mM NaCl, 10% (w/v) glycerol, 10% (w/v) ethylene glycol, 2 mM ATP and 3 mM MgCl2 for 16 h at 4° C. Heat of dilution from control experiments of each nanobody titrated into buffer was subtracted from the titration into 2PT-NBD1. Data were integrated analyzed with Origin 7.0 software (Origin Lab Corp.).
(§3) Affinity constants (KD) and thermodynamic parameters from ITC experiments were determined using one-site binding model with MicroCal Origin 7.0 software (Origin Lab Corp.). Dose response ELISA curves of each Nb binding to either isolated NBD1 or purified FL-CFTR were fitted using the sigmoidal dose-response equation from GraphPad Prism 3. DSC data were analyzed with the MicroCal Origin 7.0 software (Origin Lab Corp.), from which the unfolding temperature (Tm) was obtained.
On the technique in general: In ITC the heat of successive injections is recorded.

A further series has as its system parental BHK-21 cells. As to the kind of experiment: Flow cytometry on parental BHK-21 cells. The class given is cell-based, hamster. As to conditions: compared to negative control nanobody. As to the method:
as §1

In series [6] the target is T3, F508del-2PT-NBD1. As to the kind of experiment: NBD1 ELISA dose-response, nanobody binding to immobilized F508del-2PT-NBD1. Conditions: F508del-2PT-NBD1 versus 2PT-NBD1. How it is done:
For dose-response assays, Nunc MaxiSorp 96-well plates (ThermoScientific), were coated with 5 μg/ml NeutrAvidin Biotin-Binding protein (ThermoScientific) overnight at 4° C. and blocked 2 h at room temperature (RT) with 2% milk in phosphate-buffered saline (PBS). Each new reagent addition was preceded by three washes with 200 μl of NBD1 buffer (20 mM HEPES pH 7.5, 150 mM NaCl, and 10% (w/v) glycerol, 10% (w/v) ethylene glycol, 2 mM ATP, 3 mM MgCl2). Then, biotinylated purified NBD1 proteins at 5 μg/ml were immobilized 30 min at RT followed by 1 h RT incubation with 100 μl various concentrations (0-20 μg/ml) of purified nanobodies. Signal detection was followed using His-tag specific antibody (Invitrogen, catalogue number: MA1-135, 1:3000 dilution) to detect the nanobodies and secondary antibody anti-mouse coupled to horse radish peroxidase (HRP) (Millipore, catalogue number: AP308P, 1:5000 dilution). 50 μl of 1-Step UltraTMB-ELISA (ThermoScientific) was used as a substrate for the peroxidase and intensity of the reaction was proportional to absorbance measured at 450 nm with SynergyMx (BioTek) after addition of 50 μl H2SO4 at 1M.
as §3

The target in series [7] is T2, wt-CFTR. As to the kind of experiment: CFTR pull-down from solubilized BHK-21 cells with immunoblot. As to conditions: immunoblot with mAb 596. The format is binding. Further details: expressed in transfected cells. How it is done:
Human wt-CFTR was extracted from BHK-21 cells pellet by solubilization with 1% DMNG in PBS with proteases inhibitors for 1 h at 4° C. The cells debris were removed by centrifugation (16,000×g for 30 min at 4° C.). Supernatant was diluted 10 times in PBS with proteases inhibitors plus 10 mM imidazole and incubated at least for 30 min on HisPur Ni-NTA Resin (Thermo Scientific) pre-loaded with nanobodies. Resin was washed with 40 column volumes of PBS with 300 mM NaCl. Nanobodies were eluted with 200 mM imidazole in PBS. Presence of CFTR in each sample was detected by SDS-PAGE and immuno-blotting.
Cell extracts were separated by SDS-PAGE on 7.5% polyacrylamide gel and transferred to nitrocellulose membrane (Bio-Rad) for immunodetection. After blocking for 1 h with 5% bovine serum albumin (BSA) in Tris-buffered saline added 0.05% Tween-20 (TBST), CFTR was detected using monoclonal antibody mAb 596, IgG2b (CFTR Antibody Distribution Program, dilution 1:46) for 1 h in blocking buffer. Blot was washed 3 times 5 min and incubated with anti-mouse-HRP antibody (Millipore, catalogue number: AP308P, 0.2 μg/ml) for 1 h in TBST. Membrane was washed 3 times for 5 min. CFTR was visualized by chemiluminescence using Luminata Forte Western HRP Substrate (Millipore) and detected with ImageQuant 400 (GE Healthcare).

T4 sequence (P13569 388-646 V470M/S492P/A534P/I539T): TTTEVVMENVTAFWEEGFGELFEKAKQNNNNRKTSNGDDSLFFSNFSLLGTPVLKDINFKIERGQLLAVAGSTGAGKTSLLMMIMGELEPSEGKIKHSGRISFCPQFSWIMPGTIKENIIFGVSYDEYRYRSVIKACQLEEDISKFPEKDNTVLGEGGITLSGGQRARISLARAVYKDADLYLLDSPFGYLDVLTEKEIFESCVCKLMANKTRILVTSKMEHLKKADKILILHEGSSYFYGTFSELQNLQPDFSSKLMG
T3 sequence (P13569 with tags, fused parts or gaps V470M/S492P/DEL508-508/A534P/I539T limits assumed): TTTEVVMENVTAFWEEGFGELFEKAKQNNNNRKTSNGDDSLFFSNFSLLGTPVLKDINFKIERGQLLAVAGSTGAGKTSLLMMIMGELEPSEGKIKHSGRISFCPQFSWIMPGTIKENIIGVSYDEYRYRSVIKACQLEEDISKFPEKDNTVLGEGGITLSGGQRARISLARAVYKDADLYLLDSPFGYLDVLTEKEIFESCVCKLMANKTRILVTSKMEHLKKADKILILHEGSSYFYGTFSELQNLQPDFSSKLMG
T2 sequence (P13569 whole entry): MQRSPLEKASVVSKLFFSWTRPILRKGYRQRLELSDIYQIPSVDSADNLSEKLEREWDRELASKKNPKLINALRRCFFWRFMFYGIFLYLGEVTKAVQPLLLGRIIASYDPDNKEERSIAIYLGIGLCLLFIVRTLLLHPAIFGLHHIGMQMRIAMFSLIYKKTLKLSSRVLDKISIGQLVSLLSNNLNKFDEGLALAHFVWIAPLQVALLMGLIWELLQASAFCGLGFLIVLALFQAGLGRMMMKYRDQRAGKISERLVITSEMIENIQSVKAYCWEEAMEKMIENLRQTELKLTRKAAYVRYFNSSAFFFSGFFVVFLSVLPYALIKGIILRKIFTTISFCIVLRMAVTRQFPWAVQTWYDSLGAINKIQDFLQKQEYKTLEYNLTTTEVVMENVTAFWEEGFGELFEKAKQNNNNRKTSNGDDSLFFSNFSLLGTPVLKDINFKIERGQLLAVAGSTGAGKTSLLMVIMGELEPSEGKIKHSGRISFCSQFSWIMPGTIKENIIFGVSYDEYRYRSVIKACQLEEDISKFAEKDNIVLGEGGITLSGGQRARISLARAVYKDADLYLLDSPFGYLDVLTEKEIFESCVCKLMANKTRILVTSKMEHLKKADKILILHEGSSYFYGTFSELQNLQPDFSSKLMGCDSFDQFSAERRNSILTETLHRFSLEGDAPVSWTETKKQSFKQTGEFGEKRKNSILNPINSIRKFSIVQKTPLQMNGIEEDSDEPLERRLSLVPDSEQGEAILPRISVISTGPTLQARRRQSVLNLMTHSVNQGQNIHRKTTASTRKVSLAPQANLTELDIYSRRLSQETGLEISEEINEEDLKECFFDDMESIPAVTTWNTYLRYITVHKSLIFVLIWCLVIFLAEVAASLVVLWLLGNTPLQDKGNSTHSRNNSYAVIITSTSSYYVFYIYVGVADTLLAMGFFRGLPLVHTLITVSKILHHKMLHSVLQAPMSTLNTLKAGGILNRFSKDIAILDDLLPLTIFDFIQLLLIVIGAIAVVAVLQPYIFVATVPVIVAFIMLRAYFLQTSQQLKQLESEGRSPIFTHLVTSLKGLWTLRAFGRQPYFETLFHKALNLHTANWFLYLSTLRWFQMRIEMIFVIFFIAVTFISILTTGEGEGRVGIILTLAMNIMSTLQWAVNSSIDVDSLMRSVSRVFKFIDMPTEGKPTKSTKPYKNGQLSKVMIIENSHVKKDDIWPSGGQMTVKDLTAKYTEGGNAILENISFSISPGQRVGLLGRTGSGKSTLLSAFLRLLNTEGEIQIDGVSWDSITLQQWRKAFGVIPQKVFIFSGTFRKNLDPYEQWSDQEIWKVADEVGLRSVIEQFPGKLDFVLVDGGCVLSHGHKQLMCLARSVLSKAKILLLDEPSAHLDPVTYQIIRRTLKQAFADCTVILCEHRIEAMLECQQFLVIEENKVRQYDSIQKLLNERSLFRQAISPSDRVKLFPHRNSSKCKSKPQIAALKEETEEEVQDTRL
T1 sequence (P13569 with tags, fused parts or gaps DEL405-436/S492P/A534P/I539T/R1048A limits assumed): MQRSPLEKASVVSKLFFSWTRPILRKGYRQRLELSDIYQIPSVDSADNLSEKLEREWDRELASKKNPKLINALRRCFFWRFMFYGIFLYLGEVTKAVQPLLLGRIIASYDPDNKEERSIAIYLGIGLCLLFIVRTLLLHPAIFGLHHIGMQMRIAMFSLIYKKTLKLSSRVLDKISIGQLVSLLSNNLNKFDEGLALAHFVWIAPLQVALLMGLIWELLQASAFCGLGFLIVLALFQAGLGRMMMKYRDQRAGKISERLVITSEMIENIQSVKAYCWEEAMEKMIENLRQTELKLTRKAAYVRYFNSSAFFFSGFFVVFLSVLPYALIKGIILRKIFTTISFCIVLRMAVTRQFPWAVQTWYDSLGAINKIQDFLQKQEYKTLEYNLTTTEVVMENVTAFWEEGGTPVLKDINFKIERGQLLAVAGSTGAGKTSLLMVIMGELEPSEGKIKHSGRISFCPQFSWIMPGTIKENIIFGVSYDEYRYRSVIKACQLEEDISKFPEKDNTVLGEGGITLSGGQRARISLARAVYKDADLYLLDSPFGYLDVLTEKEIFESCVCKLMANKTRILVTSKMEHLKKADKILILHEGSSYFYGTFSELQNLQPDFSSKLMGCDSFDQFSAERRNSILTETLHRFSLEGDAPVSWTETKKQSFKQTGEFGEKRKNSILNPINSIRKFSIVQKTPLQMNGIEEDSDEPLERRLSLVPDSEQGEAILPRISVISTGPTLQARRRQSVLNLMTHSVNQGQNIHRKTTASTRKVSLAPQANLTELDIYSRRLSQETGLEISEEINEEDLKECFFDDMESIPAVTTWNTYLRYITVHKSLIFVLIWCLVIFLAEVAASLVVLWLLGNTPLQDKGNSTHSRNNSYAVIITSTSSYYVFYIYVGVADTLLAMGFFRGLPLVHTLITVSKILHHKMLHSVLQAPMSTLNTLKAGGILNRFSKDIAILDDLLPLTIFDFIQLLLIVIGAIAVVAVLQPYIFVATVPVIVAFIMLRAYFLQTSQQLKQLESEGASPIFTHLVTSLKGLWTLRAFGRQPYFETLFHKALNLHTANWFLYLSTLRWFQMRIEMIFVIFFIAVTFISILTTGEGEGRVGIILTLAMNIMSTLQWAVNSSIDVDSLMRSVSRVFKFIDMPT

B1: T4: nanobody, SEQ ID NO:6, binds epitope 2 including F508, stabilizes wild type CFTR (protein)
VHH: QVQLQESGGGLVQAGGSLRLSCAASGSTFAIIAMGWYRQAPGKQRELVAVISTGDTRYADSVKGRFTISRDNAKNTVYLQMDSLRPEDTAVYYCNAAVQVRDYRNYWGQGTQVTVSS
modifications: T4 Nanobody amino acid sequence
For the molecule B1, in series [1], the “thermostabilization of stab-CFTR (Tm increase)” value was determined as 8 °C. The “labelling of BHK-21 cells overexpressing wt-CFTR” value with wt-CFTR [2] is “increased labelling”. Moreover, in the series with F508del-2PT-NBD1 [3], the “stabilization of F508del-2PT-NBD1” value was “did not stabilize”. Besides, in the series with 2PT-NBD1 [4], the “increase of Tm of 2PT-NBD1” value was 12.5 °C. This molecule also came in with a dissociation constant (Kd) with 2PT-NBD1 [5] of 37.9 ± 7 nM. Moreover, the “labelling of parental BHK-21 cells” value in the series on parental BHK-21 cells is “no difference in labelling”. In the series with F508del-2PT-NBD1 [6], the “effect of F508del mutation on binding” value is “drastically affected”. The “pull-down of cellular CFTR, electrophoresis pattern (mature band C)” value in the series with wt-CFTR [7] is “also observed”.
